Target: NOT9 module of the human CCR4-NOT complex (human) (UniProt Q92600)

B1: MBP-RNF219-C (residues 434-726) with a C-terminal StrepII tag (domain or fragment)
chain: SSNVSNKDSSEDDISRSENEKKSECFSSPKTGFWDCCSTSYAQNLDFESSEGNTIANSVGEISSKLSEKSGLCLSKRLNSIRSFEMNRTRTSSEASMDAAYLDKISELDSMMSESDNSKSPCNNGFKSLDLDGLSKSSQGSEFLEEPDKLEEKTELNLSKGSLTNDQLENGSEWKPTSFFLLSPSDQEMNEDFSLHSSSCPVTNEIKPPSCLFQTEFSQGILLSSSHRLFEDQRFGSSLFKMSSEMHSLHNHLQSPWSTSFVPEKRNKNVNQSTKRKIQSSLSSASPSKATKS
inhibition of deadenylation by 50 nM CCR4-NOT MINI (50 nM 7-mer-A20 RNA, stopped after 32 min), MBP-RNF219-C titrated 0.05-5.0 µM; inhibition already apparent at 0.05 µM: 2.5 µM

Source: publication PMC8660800
